Entries after “also recorded” stand apart in the source; their conditions may differ. Each block holds one molecule with its values, some of them ahead of it. Numbered stars: 1 amine (or outer) side, 2 acyl side, 3 side chain; on linkers, the order of the positions; unused ones are H or OH. Square brackets hold non-standard residues; d marks the D form. Peptide text beside a SMILES is read from it. Cys(Me) = S-methylcysteine, cys(Me), CSC[C@H](N[*:1])C(=O)[*:2]; Pen = CC(C)(S)[C@H](N)C(=O)O; hLeu = CC(C)CC[C@H](N)C(=O)O; hCys = N[C@@H](CCS)C(=O)O; Nle = CCCC[C@H](N)C(=O)O; Nva = CCC[C@H](N)C(=O)O; Aib = CC(C)(N)C(=O)O
How the values were obtained:
[1] = target: HIF-2α PAS-B; experiment: 2α (μM)
Description: Table printed on a drawing sheet, Figure 3 (part 1 of 3) A
Head of the field: 2α (μM)
The patent's description of the figure: FIG. 3

[2] = target: T1, HIF-1α PAS-B (238-349) (Homo sapiens, UniProt Q16665); experiment: MST binding to recombinantly expressed HIF-1α PAS-B domain; conditions: for affinity for the PAS-B domain of HIF-1α compared with cyclo-CLLFVY: compared with previously reported HIF-1 dimerization inhibitor
T1 construct: human HIF-1α PAS-B (238-349); His tag; made in house; host or cells: E. coli BL21(DE3)-Rosetta, pET28a
T1 sequence (Q16665 238-349): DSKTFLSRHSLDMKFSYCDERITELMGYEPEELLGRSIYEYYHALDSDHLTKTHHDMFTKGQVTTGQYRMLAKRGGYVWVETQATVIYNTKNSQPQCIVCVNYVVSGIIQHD
Experimental: (§1) Genes encoding for human HIF-1α PAS-B (238-349) and HIF-2α PAS-B (240-350) were each cloned into pET28a vectors at the BamHI and SacI restriction sites. The recombinant plasmids were next transformed into BL21(DE3)-Rosetta chemically competent cells. Cells were grown in LB media at 37° C. to an OD600 of 0.7, after which expression was induced by addition of 0.5 mM IPTG. Following overnight expression at 16° C., cells were pelleted and resuspended in buffer containing 50 mM Tris, 150 mM NaCl, 5% glycerol, 1 mM TCEP, protease inhibitors (Roche) and 20 mM imidazole, pH 8.0. Cells were lysed by sonication, and the supernatant applied to a 1 mL Histrap FF affinity column. The His-tagged protein of interest was eluted with buffer containing 50 mM Tris, 150 mM NaCl, 5% glycerol, 1 mM TCEP and 250 mM imidazole. The protein was then loaded onto a HiLoad 16/600 superdex 75 pg size exclusion column (GE healthcare) equilibrated with assay buffer containing 50 mM Tris, 150 mM NaCl, 5% glycerol and 1 mM TCEP, pH 8.0. Fractions containing the desired protein were flash-frozen and stored at −80° C. prior to use.
(§2) HIF-α proteins were labelled with Monolith NT-647 labelling dye (Nanotemper Technologies GmbH) according to the manufacturer's instructions. MST experiments were performed on a Monolith NT.115 system (Nanotemper Technologies GmbH), in assay buffer containing 50 nM labelled protein, 10% DMSO and 0.05% TWEEN-20. MST measurements were performed using 50% LED and 50% MST power.

[3] = target: T2, HIF-2α PAS-B (240-350) (Homo sapiens, UniProt Q99814); experiment: MST binding to recombinantly expressed HIF-2α PAS-B domain; conditions: MST, recombinant HIF-2α PAS-B domain; read-out: Kd / binding affinity for 2α PAS-B
T2 construct: HIF-2α PAS-B (240-350); His tag; made in house; host or cells: E. coli BL21(DE3)-Rosetta, pET28a
T2 sequence (Q99814 240-350): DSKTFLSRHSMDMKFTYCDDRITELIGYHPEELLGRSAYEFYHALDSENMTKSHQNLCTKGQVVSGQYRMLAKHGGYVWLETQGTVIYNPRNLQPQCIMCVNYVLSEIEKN
Experimental: The three lead peptides were next chemically synthesised, using Fmoc-solid phase peptide synthesis methodology, followed by in-solution cyclisation under high dilution conditions.
as §1, with “use. […]” for “use.”

[4] = target: T3, human HIF-1α PAS-B (238-349), recombinant, His-tagged (human, UniProt Q16665 238-349, labelled with Monolith NT-647 dye for MST); experiment: MST, HIF-1α PAS-B; bar chart of Kd (µM) for residues at position 5 of CRLIIF
T3 construct: range 238-349; Expressed in E. coli BL21(DE3)-Rosetta from pET28a; also called HIF-1α PAS-B domain; PAS-B domain of HIF-1α; not shown: His tag from pET28a vector (BamHI/SacI cloning)
T3 sequence (Q16665 238-349): as the sequence (Q16665 238-349) above

[5] = target: T3, human HIF-1α PAS-B (238-349), …; experiment: MST, HIF-1α PAS-B; bar chart of Kd (µM) for residues at position 1 of CRLIIF
[6] = target: T3, human HIF-1α PAS-B (238-349), …; experiment: MST, NT-647-labelled recombinant 1α PAS-B
Experimental: as §2

[7] = target: T4, human HIF-2α PAS-B (240-350), recombinant, His-tagged (human, UniProt Q99814 240-350, labelled with Monolith NT-647 dye for MST); experiment: MST, HIF-2α PAS-B (column 2α (µM))
T4 construct: range 240-350; Expressed in E. coli BL21(DE3)-Rosetta from pET28a; also called PAS-B domain of HIF-2α; not shown: His tag from pET28a vector (BamHI/SacI cloning)
T4 sequence (Q99814 240-350): as the sequence (Q99814 240-350) above

[8] = target: T3, human HIF-1α PAS-B (238-349), …; experiment: MST, HIF-1α PAS-B (column 1α (µM))

Kd [1]: 269 ± 7 µM
Molecule: CC[C@H](C)[C@@H]1NC(=O)[C@H](CC(C)C)NC(=O)[C@H](CCCNC(=N)N)NC(=O)[C@H](CS)NC(=O)[C@H](Cc2ccccc2)NC(=O)[C@H](C)NC1=O [compound 10, CRLIAF]

Kd [1]: 52 ± 7 µM
Molecule: CC[C@H](C)[C@@H]1NC(=O)[C@H](C)NC(=O)[C@H](CCCNC(=N)N)NC(=O)[C@H](CS)NC(=O)[C@H](Cc2ccccc2)NC(=O)[C@H]([C@@H](C)CC)NC1=O [compound 8, CRAIIF] (cyclo(CRAIIF))

selectivity between 1α and 2α PAS-B domains (in words) ([2]; MST, 1α vs 2α PAS-B): little difference in selectivity
affinity for the PAS-B domain of HIF-1α compared with cyclo-CLLFVY [2]: improved affinities
Molecule: CC[C@H](C)[C@@H]1NC(=O)[C@H](CC(C)C)NC(=O)[C@H](CCCCN)NC(=O)[C@H](CS)NC(=O)[C@H](Cc2ccccc2)NC(=O)[C@H]([C@@H](C)CC)NC1=O [Cyclic peptide #1, cyclo-cys lys leu ile ile phe] (cyclo(CKLIIF))

Kd / binding affinity for 1α PAS-B ([2]; MST, recombinant HIF-1α PAS-B domain): could not be determined
Molecule: CC[C@H](C)[C@@H]1NC(=O)[C@H](CC(C)C)NC(=O)[C@H](CCCNC(=N)N)NC(=O)[C@H](C)NC(=O)[C@H](Cc2ccccc2)NC(=O)[C@H]([C@@H](C)CC)NC1=O [Cyclic peptide #9, cyclo-ala agr leu ile ile phe] (cyclo(ARLIIF))

Kd ([2]; MST, recombinant HIF-1α PAS-B domain, read-out: Kd / binding affinity for 1α PAS-B): 10 to 14 µM
affinity for the PAS-B domain of HIF-1α compared with cyclo-CLLFVY [2]: improved affinities
Kd [3]: 10 to 14 µM
Molecule: CC[C@H](C)[C@@H]1NC(=O)[C@H](CC(C)C)NC(=O)[C@H](CC(C)C)NC(=O)[C@H](CCCNC(=N)N)NC(=O)[C@H](CS)NC(=O)[C@H](Cc2ccccc2)NC1=O [Cyclic peptide #2, cyclo-cys arg leu leu ile phe] (cyclo(CRLLIF))

Molecule: CC[C@H](C)[C@@H]1NC(=O)[C@H](CC(C)C)NC(=O)[C@H](CCCNC(=N)N)NC(=O)[C@H](CS)NC(=O)[C@H](Cc2ccccc2)NC(=O)C(C)(C)NC1=O [Cyclic peptide #38, cyclo-cys agr leu ile (Aib) phe (Aib)F] (cyclo([Aib]FCRLI))
affinity relative to parent peptide CRLIIF (in words) ([2]; MST, SAR substitutions, listed as Aib derivative): weaker Kd than the parent compound; also recorded: markedly improved affinity over both the alanine and aminobutyric acid

binding result [4]: binds
B1: cyclo-cys arg leu ile (n-leu) phe (peptide)
peptide: cyclo(CRLI[Nle]F)
SMILES: CCCC[C@@H]1NC(=O)[C@H]([C@@H](C)CC)NC(=O)[C@H](CC(C)C)NC(=O)[C@H](CCCNC(=N)N)NC(=O)[C@H](CS)NC(=O)[C@H](Cc2ccccc2)NC1=O
notes: also called Cyclo-CRLI(Nle)F; cyclic peptide #34

binding result [4]: binds
B2: cyclo-cys arg leu ile h-leu phe (peptide)
peptide: cyclo(CRLI[hLeu]F)
SMILES: CC[C@H](C)[C@@H]1NC(=O)[C@H](CC(C)C)NC(=O)[C@H](CCCNC(=N)N)NC(=O)[C@H](CS)NC(=O)[C@H](Cc2ccccc2)NC(=O)[C@H](CCC(C)C)NC1=O
notes: also called Cyclo-CRLI(hL)F; cyclic peptide #33

Kd [5]: 9 µM
B3: cyclo-Pen arg leu ile ile phe (peptide)
peptide: cyclo([Pen]RLIIF)
SMILES: CC[C@H](C)[C@@H]1NC(=O)[C@H](CC(C)C)NC(=O)[C@H](CCCNC(=N)N)NC(=O)[C@H](C(C)(C)S)NC(=O)[C@H](Cc2ccccc2)NC(=O)[C@H]([C@@H](C)CC)NC1=O
notes: also called Cyclo-PenRLIIF; cyclic peptide #12d

Kd [6]: 3.8 µM
fold greater affinity than CKLLIF [6]: ~3 fold
Kd [7]: 11 µM
Kd [5]: 3.9 µM
Molecule: CRLIIF (head-to-tail cyclic (cyclo-), also called CRLIIF; cyclic peptide #4) [cyclo-cys arg leu ile ile phe]

Kd [8]: 13 µM
Kd [7]: 61 µM
Molecule: CRLAIF (head-to-tail cyclic (cyclo-), also called CRLAIF; cyclic peptide #6) [cyclo-cys arg leu ala ile phe]

Kd [5]: 169 µM
B4: S (peptide)
cyclic peptide: SRLIIF
modifications: head-to-tail cyclised
notes: Bar 'S' in the chart of C1 substitutions of CRLIIF; Comparative peptide; also called Cyclo-SRLIIF; cyclo-ser arg leu ile ile phe

Kd [8]: 53 µM
Kd [7]: 52 µM
Molecule: CRAIIF (head-to-tail cyclic (cyclo-), also called CRAIIF; cyclic peptide #11) [cyclo-cys arg ala ile ile phe]

Kd [8]: 91 µM
Kd [7]: 373 µM
Molecule: CRLIIA (head-to-tail cyclic (cyclo-), also called CRLIIA; cyclic peptide #8) [cyclo-cys arg leu ile ile ala]

Kd [8]: 111 µM
Kd [7]: 269 µM
Molecule: CRLIAF (head-to-tail cyclic (cyclo-), also called CRLIAF; cyclic peptide #7) [cyclo-cys arg leu ile ala phe]

binding result [4]: binds
B5: cyclo-cys arg leu ile leu phe (peptide)
peptide: CRLILF
modifications: head-to-tail cyclic (cyclo-)
notes: also called Cyclo-CRLILF; cyclic peptide #36

Kd [5]: > 200 µM
B6: T (peptide)
cyclic peptide: TRLIIF
modifications: head-to-tail cyclised
notes: Bar 'T' in the chart of C1 substitutions of CRLIIF; Comparative peptide; also called Cyclo-TRLIIF; cyclo-thr arg leu ile ile phe

Kd [6]: 12 µM
Molecule: cyclo(CKLLIF) (not fully specified, also called CKLLIF; cyclic peptide #5) [cyclo-cys lys leu leu ile phe]

Kd [8]: 30 µM
Kd [7]: 12 µM
Molecule: CALIIF (head-to-tail cyclic (cyclo-), also called CALIIF; cyclic peptide #10) [cyclo-cys ala leu ile ile phe]

Kd [5]: 108 µM
B7: M (peptide)
cyclic peptide: MRLIIF
modifications: head-to-tail cyclised
notes: Bar 'M' in the chart of C1 substitutions of CRLIIF; Comparative peptide; also called Cyclo-MRLIIF; cyclo-met arg leu ile ile phe

Kd [5]: > 200 µM
Molecule: ARLIIF (head-to-tail cyclic (cyclo-), also called ARLIIF; cyclic peptide #9) [cyclo-ala arg leu ile ile phe]

binding result [4]: binds
B8: cyclo-cys arg leu ile val phe (peptide)
peptide: CRLIVF
modifications: head-to-tail cyclic (cyclo-)
notes: also called Cyclo-CRLIVF; cyclic peptide #37

binding result [4]: binds
B9: cyclo-cys arg leu ile (Nva) phe (peptide)
peptide: cyclo(CRLI[Nva]F)
SMILES: CCC[C@@H]1NC(=O)[C@H]([C@@H](C)CC)NC(=O)[C@H](CC(C)C)NC(=O)[C@H](CCCNC(=N)N)NC(=O)[C@H](CS)NC(=O)[C@H](Cc2ccccc2)NC1=O
notes: also called Cyclo-CRLI(Nva)F; cyclic peptide #35

Kd [5]: 44 µM
B10: cyclo-hcys arg leu ile ile phe (peptide)
peptide: cyclo([hCys]RLIIF)
SMILES: CC[C@H](C)[C@@H]1NC(=O)[C@H](CC(C)C)NC(=O)[C@H](CCCNC(=N)N)NC(=O)[C@H](CCS)NC(=O)[C@H](Cc2ccccc2)NC(=O)[C@H]([C@@H](C)CC)NC1=O
notes: also called Cyclo-hCRLIIF; cyclic peptide #13d

Kd [5]: 62 µM
B11: C(Me) (peptide)
cyclic peptide: cyclo([Cys(Me)]RLIIF)
SMILES: CC[C@H](C)[C@@H]1NC(=O)[C@H](CC(C)C)NC(=O)[C@H](CCCNC(=N)N)NC(=O)[C@H](CSC)NC(=O)[C@H](Cc2ccccc2)NC(=O)[C@H]([C@@H](C)CC)NC1=O
notes: Bar 'C(Me)' in the chart of C1 substitutions of CRLIIF; Comparative peptide; also called Cyclo-C(Me)RLIIF; cyclo-(methyl)cys arg leu ile ile phe
